“And” between values parts separate entries of the source, which are not always exact repeats. Equal entries are not always repeated.
How the values were obtained:
[1] = test system: transgenic soybean plants; assay: R0 soybean 2,4-D spray test of 2,4-D optimized variants; format: in vivo
Excerpt: An additional five engineered proteins optimized for activity for 2,4-D were then selected for analysis in transgenic soybean. DNA constructs were produced for expressing MON-HT13 (SEQ ID NO:47), MON-HT14 (SEQ ID NO:48), MON-HT15 (SEQ ID NO:49), MON-HT17 (SEQ ID NO:51), and MON-HT18 (SEQ ID NO:52) with codon usage optimized for dicot expression. The operably linked expression elements (promoter, leader, intron, CTP, and 3′UTR) were identical in all of the constructs. Leaf samples were taken from R0 plantlets and single copy plants were identified using a PCR-based assay. When the single-copy R0 plants had approximately two to three trifoliate leaves, they were treated with either 1.5 lb ae/acre (2×) or 3.0 lb ae/acre (4×) of 2,4-D. Seven days after herbicide application, the plants were scored for herbicide injury based on the percent area of the plant showing injury, as indicated above.

[2] = test system: transgenic soy plants; assay: soy green house tolerance to synthetic auxins; format: in vivo, soybean; details: for Average soy % crop injury for 4 reps, 2,4-D Amine / Average soy % crop injury for 4 reps, MCPA: 2X rate 1680 g ae/ha
[3] = test system: F1 hybrid maize plants; assay: maize green house tolerance to synthetic auxins; format: in vivo; details: 'A' CTP, Events 1-3 in columns
[4] = test system: F1 hybrid maize plants; assay: plant-based growth chamber assay for temperature-sensitive quizalofop-P tolerance; format: in vivo
Excerpt: The finding that hybrid plants expressing the engineered proteins MON-HT55 or MON-HT51 were sensitive to quizalofop-P application when grown in field conditions of high temperature was confirmed using a plant-based assay. The plant-based assay was designed to test tolerance to quizalofop-P of F1 hybrids in the growth chamber prior to field testing. The assay was developed using F1 hybrids of plants containing maize events NK603 (U.S. Pat. No. 8,273,959)×MON89034 (U.S. Pat. No. 8,581,047) and F1 hybrids of plants containing MON-HT55×MON89034. F1 hybrid seed was germinated in a growth chamber for 1 week and then moved to one of three different growth chambers to acclimate for two days at day/night temperatures of 20° C./20° C., 28° C./20° C., and 38° C./30° C. prior to application of 2× (0.16 lb ai/acre) quizalofop-P. As expected, the plants not containing MON-HT55 at all temperature regimens were severely injured by 2× quizalofop-P application (FIG. 1B). […] (FIG. 1C). This confirmed that the plant-based assay could be used to screen proteins in plants in the growth chamber for temperature-sensitive activity.

[5] = test system: F1 hybrid maize plants; assay: plant-based assay for heat sensitivity, quizalofop-P tolerance; format: in vivo; details: 2× quizalofop-P, ten days post treatment, 0 no visible injury, 5 dead plants
Method: A plant-based enzyme activity assay for heat sensitivity was used to determine the effect of elevated growth temperatures on the herbicide tolerance of transgenic plants containing the optimized engineered proteins. To test for quizalofop-P tolerance at elevated growth temperatures, F1 hybrid (produced by crossing an R1 homozygous plant expressing one of the MON-HT proteins with inbred maize event MON89034) maize seed was grown in a growth chamber for 10 days at a day temperature of 28° C. and a night temperature of 20° C. with 50% humidity. After 10 days, the plants were moved to acclimate for 3 days at one of three different day and night temperature regimens: (1) both day and night temperatures set at 20° C.; (2) day temperature at 28° C. and night temperature at 20° C.; or (3) day temperature at 38° C. and night temperature at 30° C. At the end of the acclimation period, the plants were generally at V4 growth stage and were sprayed with 2× quizalofop-P. Ten days post treatment the plants were scored for injury on a rating scale of 1 to 5 where ‘0’ is no visible injury observed, ‘1’ is chlorotic speckling, ‘2’ is chlorotic streaking, ‘3’ there are leaf gaps or tears, ‘4’ are plants with stunted growth and/or twisted leaves, and ‘5’ are dead plants or no growth observed. […] (FIG. 4A) or 28° C./20° C. […]

[6] = 2X rate 840 g ae/ha, Events 1-3 in columns, seven days after treatment
[7] = Events 1-3 in columns, seven days after treatment
[8] = Events 1-3 in columns, seven days after treatment, listed as MON-HTI

B1: MON-HT1: engineered oxygenase protein, amino acid sequence SEQ ID NO:14 (protein)
chain: MHAALTPLTNKYRFIDVQPLTGVLGAEITGVDLREPLDDSTWNEILDAFHTYQVIYFPGQAITNEQHIAFSRRFGPVDPVPILKSIEGYPEVQMIRREANESSRFIGDDWHTDSTFLDAPPAAVVMRAIEVPEYGGDTGFLSMYSAWETLSPTMQATIEGLNVVHSATKVFGSLYQATNWRFSNTSVKVMDVDAGDRETVHPLVVTHPVTGRRALYCNQVYCQKIQGMTDAESKSLLQFLYEHATKFDFTCRVRWKKDQVLVWDNLCTMHRAVPDYAGKFRYLTRTTVAGDKPSR
In the case of B1, the “Events with <20% injury” value ([1]; 2,4-D rate 2X (1.5 lb ae/acre), single copy R0 soy, seven days after application) is reported as 12, the “tolerance to 2,4-D treatment” value ([1]; 2× application rate, soy) is reported as “excellent tolerance” and the “Average soy % crop injury for 4 reps, fluroxypyr” value [2, 6] is reported as 96.3% and 93.8% and 97.5%. For the same molecule, the “Average soy % crop injury for 4 reps, triclopyr” value [2, 6] was 81.3% and 90.0%, the “Average soy % crop injury for 4 reps, 2,4-D Amine” value [2, 7] was 4.5% and 6.5% and 5.3% and the “Average soy % crop injury for 4 reps, MCPA” value [2, 7] was 90.0% and 72.5%. The “Average soy % crop injury for 4 reps, 2,4-D Amine” value [2, 8] was “less than 7%”, the “Average soy % crop injury for 4 reps, MCPA” value [2, 8] was 72% and 90% and the “soy crop injury, triclopyr or fluroxypyr, across all three events” value ([2]; 2× rate 840 g ae/ha) was 81-97%. The “Average maize % crop injury for 4 reps, fluroxypyr” value ([3]; 4X rate 1680 g ae/ha) was 20.0% and 21.3%, the “Average maize % crop injury for 4 reps, triclopyr” value ([3]; 4X rate 1680 g ae/ha) was 26.3% and 37.5% and 35.0% and the “Average maize % crop injury for 4 reps, MCPA” value ([3]; 4X rate 3360 g ae/ha, listed as MON-HTl) was 20%.

B2: MON-HT55: engineered oxygenase protein, amino acid sequence SEQ ID NO:11 (protein)
chain: MHAALSPLSQRFERIAVQPLTGVLGAEITGVDLREPLDDSTWNEILDAFHTYQVIYFPGQAITNEQHIAFSRRFGPVDPVPLLKSIEGYPEVQMIRREANESGRVIGENWHTDSTFLDAPPAAVVMYAKEIPPYGGDTLFTSMYTAWETLSPTMQATIEGLNVVHSATRVFGSLYQAQNRRFSNTSVKVMDVDAGDRETVHPLVVTHPETGRKGLYVNQVYCQRIEGMSEKESEPLLSFLFAHATKPEFTCRVRWQEGDVLVWDNLCTQHYAVPDYAGKFRYLTRTTVGGVRPAR
In the case of B2, the “tolerance to 2× quizalofop-P application” value ([4]; acclimated at day/night 20° C./20° C. or 28° C./20° C.) is reported as “good tolerance”, the “tolerance to 2× quizalofop-P application” value ([4]; acclimated at day/night 38° C./30° C.) is reported as “significant sensitivity” and the injury rating ([5]; day/night 20° C./20° C. or 28° C./20° C.) is reported as “around 2”. The injury rating ([5]; day/night 38° C./30° C.) was 3.
